Results as given in paper PMC4728127, “A mutation uncouples the tubulin conformational and GTPase cycles, revealing allosteric control of microtubule dynamics” (eLife, 2015).

T1: wild-type yeast αβ-tubulin (S. cerevisiae, UniProt P09733 1-447; P02557 1-457)
T1 chain 1: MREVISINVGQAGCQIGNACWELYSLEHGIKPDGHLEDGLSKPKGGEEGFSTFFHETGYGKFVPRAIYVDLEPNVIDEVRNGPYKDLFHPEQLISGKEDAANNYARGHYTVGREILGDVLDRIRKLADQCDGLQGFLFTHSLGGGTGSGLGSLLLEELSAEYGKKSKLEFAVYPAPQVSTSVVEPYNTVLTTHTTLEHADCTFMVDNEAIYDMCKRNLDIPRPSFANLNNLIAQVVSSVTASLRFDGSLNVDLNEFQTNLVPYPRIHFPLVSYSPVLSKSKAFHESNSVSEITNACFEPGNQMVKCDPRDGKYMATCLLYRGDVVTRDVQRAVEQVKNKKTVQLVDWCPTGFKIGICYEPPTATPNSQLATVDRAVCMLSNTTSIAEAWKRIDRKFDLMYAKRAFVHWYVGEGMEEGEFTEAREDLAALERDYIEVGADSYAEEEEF
T1 chain 2: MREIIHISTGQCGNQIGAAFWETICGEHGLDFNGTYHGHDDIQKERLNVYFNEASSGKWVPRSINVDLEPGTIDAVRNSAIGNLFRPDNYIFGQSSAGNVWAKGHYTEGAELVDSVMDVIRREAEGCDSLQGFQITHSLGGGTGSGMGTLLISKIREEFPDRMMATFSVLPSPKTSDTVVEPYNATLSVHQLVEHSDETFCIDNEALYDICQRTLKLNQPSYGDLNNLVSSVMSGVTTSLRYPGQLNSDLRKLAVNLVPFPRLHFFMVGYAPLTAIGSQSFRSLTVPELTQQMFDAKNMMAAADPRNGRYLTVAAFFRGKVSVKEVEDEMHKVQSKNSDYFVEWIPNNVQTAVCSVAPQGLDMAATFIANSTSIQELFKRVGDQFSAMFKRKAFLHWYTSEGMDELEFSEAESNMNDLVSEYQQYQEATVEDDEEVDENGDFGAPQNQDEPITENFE


What was measured:
[1] = molecular target: T1, wild-type yeast αβ-tubulin; assay: AUC
β:T238A αβ-tubulin [2] = molecular target: β:T238A αβ-tubulin (S. cerevisiae, UniProt P09733 1-447; P02557 1-457, T238A); assay: AUC
[3] = molecular target: T2, wild-type yeast αβ-tubulin (S. cerevisiae, UniProt P09733 1-447; P02557 1-457); assay: AUC; sedimentation velocity, 50,000 rpm, 20 °C, absorbance at 229 nm; 0.15 µM T238A αβ-tubulin with 0.015-5 µM TOG1 or TOG2; RB100 (25 mM Tris pH 7.5, 1 mM MgCl2, 1 mM EGTA, 100 mM NaCl) with 20 µM GTP; analysed with SEDFIT and SEDPHAT; details: both partners purified
T2 construct: Tub1p, α-tubulin of S. cerevisiae; Ayaz et al., 2012; 2014); Tub2p, β-tubulin of S. cerevisiae; Unpolymerized heterodimer in the AUC; polymerised into microtubules in the Bim1-GFP, growth and sedimentation assays; also called WT; wild-type αβ-tubulin

β:T238A αβ-tubulin [4] = molecular target: T3, β:T238A αβ-tubulin (S. cerevisiae, UniProt P09733 1-447; P02557 1-457, T238A); assay: as above; details: both partners purified
T3 construct: Tub1p, α-tubulin of S. cerevisiae; Tub2p, β-tubulin of S. cerevisiae, with T238A made by QuikChange on the wild-type Tub2 expression plasmid; Unpolymerized heterodimer in the AUC; microtubules in the other assays; also called T238A tubulin; β:T238A microtubules

β:C354A αβ-tubulin = molecular target: T4, β:C354A αβ-tubulin (S. cerevisiae, UniProt P09733 1-447; P02557 1-457, C354A); assay: TIRF microscopy of Bim1-GFP on microtubules; dynamic microtubules grown from sea urchin axonemes in flow chambers with 1 mM GTP; 5 or 50 nM Bim1-GFP in solution; 30 °C; details: both partners purified
T4 construct: Tub1p, α-tubulin of S. cerevisiae; Tub2p, β-tubulin of S. cerevisiae, with C354A (yeast numbering); The making of the C354A plasmid is not described; Used as microtubules; also called β:C354A microtubules

[5] = molecular target: T2, wild-type yeast αβ-tubulin; assay: as above; details: both partners purified
β:T238A αβ-tubulin [6] = molecular target: T3, β:T238A αβ-tubulin; assay: as above; details: both partners purified

| Kd [1] [nM] | Kd (β:T238A αβ-tubulin [2]) [nM] | binding result [3] | binding result (β:T238A αβ-tubulin [4]) | binding result (β:C354A αβ-tubulin) | binding result [5] | binding result (β:T238A αβ-tubulin [6]) | Binder |
| --- | --- | --- | --- | --- | --- | --- | --- |
| 180 | 160 | binds | binds | – | – | – | TOG2(318-560) of Stu2p (domain or fragment, yeast, UniProt P46675 318-560, looked up, Stu2p, yeast microtubule polymerase, TOG2 domain, residues 318-560; Plasmid described in Ayaz et al., 2012; 2014; also called Stu2 TOG2 domain) MLPEETILDKLPKDFQERITSSKWKDRVEALEEFWDSVLSQTKKLKSTSQNYSNLLGIYGHIIQKDANIQAVALAAQSVELICDKLKTPGFSKDYVSLVFTPLLDRTKEKKPSVIEAIRKALLTICKYYDPLASSGRNEDMLKDILEHMKHKTPQIRMECTQLFNASMKEEKDGYSTLQRYLKDEVVPIVIQIVNDTQPAIRTIGFESFAILIKIFGMNTFVKTLEHLDNLKRKKIEETVKTL |
| 90 | 50 | binds | binds | – | – | – | TOG1(1-317) of Stu2p (domain or fragment, yeast, UniProt P46675 1-317, looked up, Stu2p, yeast microtubule polymerase, TOG1 domain, residues 1-317; Plasmid described in Ayaz et al., 2012; 2014; also called Stu2 TOG1 domain) MSGEEEVDYTTLPLEERLTYKLWKARLEAYKELNQLFRNSVGDISRDDNIQIYWRDPTLFAQYITDSNVVAQEQAIVALNSLIDAFASSSLKNAHNITLISTWTPLLVEKGLTSSRATTKTQSMSCILSLCGLDTSITQSVELVIPFFEKKLPKLIAAAANCVYELMAAFGLTNVNVQTFLPELLKHVPQLAGHGDRNVRSQTMNLIVEIYKVTGNNSDLLEEILFKKLKPIQVKDLHKLFAKVGDEPSSSKMLFEWEKRELEKKRSQEEEARKRKSILSNDEGEYQIDKDGDTLMGMETDMPPSKQQSGVQIDTFS |
| – | – | – | – | binds | binds | binds | Bim1-GFP fusion protein (natural protein, yeast, UniProt P40013 1-344, looked up, Bim1p, the yeast EB1 family protein; C-terminal EGFP-tag followed by a Strep-tag II; also called Bim1p; yeast EB1 protein; source: E. coli BL21(DE3), purified (His60 Superflow column, Strep-Tactin Superflow column); not shown: EGFP, C-terminal, kept) MSAGIGESRTELLTWLNGLLNLNYKKIEECGTGAAYCQIMDSIYGDLPMNRVKFNATAEYEFQTNYKILQSCFSRHGIEKTVYVDKLIRCKFQDNLEFLQWLKKHWIRHKDESVYDPDARRKYRPIITNNSATKPRTVSNPTTAKRSSSTGTGSAMSGGLATRHSSLGINGSRKTSVTQGQLVAIQAELTKSQETIGSLNEEIEQYKGTVSTLEIEREFYFNKLRDIEILVHTTQDLINEGVYKFNDETITGHGNGNGGALLRFVKKVESILYATAEGFEMNDGEDELNDKNLGEHGTVPNQGGYANSNGEVNGNEGSNHDVIMQNDEGEVGVSNNLIIDEETF |
